Experimental data from patent US20160002331A1 (Pfizer, published 2016).
“And” between values parts separate entries of the source, which are not always exact repeats. Identical values can stand only once. Blank lines part the entries; values can stand above or below the binder they belong to.

Columns and labels:
[1] = biological target: T1, full-length mouse Notch1 expressed on the cell surface of U-2 OS cells (mouse, UniProt Q01705 19-2531); test: cell-based ELISA, U-2 OS cells expressing full-length mouse Notch1
T1 construct: whole, on cells; also called murine Notch1
Protocol: (§1) Supernatants from clones displaying positive binding to immunogens in recombinant Notch1 NRR based ELISAs described above were then screened for cell surface Notch1 binding in a cell-based ELISA. U-2 OS cells stably overexpressing human or mouse full length Notch1 protein on cell surface were plated at 50,000 cells/well in 96 well plates (white opaque, BD/VWR) the day before ELISA assay. On the day of the ELISA, culture media were removed from wells and serially diluted (1:3 in blocking buffer) antibody solutions or hybridoma culture supernatants were applied to the plate. Plates were incubated at room temperature for 2 hours before being washed with PBS-Mg/Ca. HRP-conjugated secondary antibody was then applied and incubated with cells for 1 hour as described above for recombinant protein ELISA. Plates were washed with PBS-Mg/Ca before being developed with Pico-Chemiluminescent developing kit (Thermal Scientific), and chemiluminescence measurements were performed per manufacturer's instructions. Data plotting and analyses were performed with Microsoft Excel and Graphpad-Prizm software.

[2] = biological target: T2, human Notch1 NRR_Avi_His recombinant protein (human, UniProt P46531 1434-1737); test: SPR (Biacore T100), antibody captured by anti-human IgG-Fc, NRR_Avi_His as analyte, 1:1 Langmuir model
T2 construct: Secreted from CHO-PACE cells; cleaved at S1 into an N-terminal ~26 kDa half (LNR-A, B, C, HD1) and a C-terminal ~12 kDa half (HD2 and tag) that stay associated non-covalently; written here as one chain; also called recombinant human Notch1 NRR; human Notch1 NRR immunogen
T2 sequence: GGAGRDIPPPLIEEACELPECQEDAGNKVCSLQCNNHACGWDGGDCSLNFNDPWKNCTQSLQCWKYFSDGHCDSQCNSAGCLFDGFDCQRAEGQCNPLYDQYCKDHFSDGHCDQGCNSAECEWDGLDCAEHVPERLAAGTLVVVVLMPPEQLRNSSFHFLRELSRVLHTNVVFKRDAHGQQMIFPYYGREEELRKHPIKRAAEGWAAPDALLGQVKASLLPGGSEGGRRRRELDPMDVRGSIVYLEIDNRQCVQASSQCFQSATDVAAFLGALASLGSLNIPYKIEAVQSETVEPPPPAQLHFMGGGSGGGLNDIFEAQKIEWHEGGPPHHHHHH
Protocol: (§2) The kinetic constants of the anti-Notch1 NRR interactions were determined by surface plasmon resonance (Biacore® T100, Biacore Inc., Piscataway, N.J.). Flow cells of a CM5 chip were immobilized with approximately 10,000 Resonance Unit (RU) of anti-human IgG-Fc (Biacore®) in 10 mM Glycine, pH 5.0 at 10 μl/min for 600 seconds. […] Association of four concentrations of human Notch1 NRR_Avi_His recombinant protein (from 3.7-100 nM) and a zero concentration (running buffer) at 100 μl/min were recorded for 3 minutes in TBS with 1 mM CaCl₂. Dissociation of the complexes was measured for 10 minutes. The surface of the chip was regenerated by injecting 3M MgCl₂ with 3 mM EGTA for 60 seconds at 10 μl/min. Curves obtained after subtraction of the reference and buffer signals were fitted to a 1:1 Langmuir binding model with Biacore® T100 Evaluation Software (Biacore®).

[3] = biological target: T3, full-length human Notch1 expressed on the cell surface (human, UniProt P46531 19-2555); test: cell-based ELISA, U-2 OS cells expressing full-length human Notch1
T3 construct: whole, on cells; On U-2 OS cells stably overexpressing it (ELISAs, reporter cells); also called cell surface full-length human Notch1; native Notch1 receptor
Protocol: as §1

[4] = biological target: T3, full-length human Notch1 expressed on …; test: competition ELISA on U-2 OS cells expressing full-length human Notch1; competitor 0.8 nM biotinylated rat 438
Protocol: (§3) In a similar manner as described for recombinant protein or cell based ELISAs, 96 well cell culture plates were either coated with Notch1 NRR-Avi_His protein (hi-bound co-Star plates), or seeded with full length Notch1 expressing U-2 OS cells (cell culture plate, Co-star), respectively.
(§4) After incubation for 2 hours, the plates were washed, as described above, and HRP-conjugated streptavidin (Southern Biotech) diluted 1:5000 in blocking buffer was applied. Incubation with streptavidin was allowed for 30 min before the plates were washed again and developed with TMB solution for 10 minutes. Developing reaction was stopped by adding 0.18M H₂SO₄ and absorbance at 450 nm was measured. Data plotting and analyses were performed with Microsoft Excel and Graphpad-Prizm software.

[5] = biological target: T2, human Notch1 NRR_Avi_His recombinant …; test: competition ELISA on coated human Notch1 NRR_Avi_His; competitor 0.8 nM biotinylated rat 438
Protocol: as §3, §4

[6] = biological target: T4, Notch1 receptor with L1575P mutation (HPB-ALL cells) (UniProt P46531 19-2555, limits assumed); test: cell-based or functional assay
[7] = biological target: T1, full-length mouse Notch1 expressed on …; test: cell-based or functional assay
[8] = biological target: T3, full-length human Notch1 expressed on …; test: cell-based or functional assay
[9] = biological target: T2, human Notch1 NRR_Avi_His recombinant …; test: SPR (Biacore T100), ratio of KD to that of rat 438-hIgG1
Protocol: as §2

[10] = biological target: T4, Notch1 receptor with L1575P mutation …; test: cell-based or functional assay; remark: listed apart in the source
[11] = biological target: Notch1 receptor with a 12 amino acid insertion at position 1595 (CCRF-CEM cells) (UniProt P46531 19-2555); test: cell-based or functional assay
[12] = biological target: T3, full-length human Notch1 expressed on …; test: cell-based or functional assay; remark: listed apart in the source
[13] = biological target: T1, full-length mouse Notch1 expressed on …; test: cell-based or functional assay; remark: listed apart in the source
[14] = biological target: T3, full-length human Notch1 expressed on …; test: cell-based or functional assay; remark: listed apart in the source
[15] = biological target: T3, full-length human Notch1 expressed on …; test: competition ELISA on U-2 OS cells expressing full-length human Notch1; competitor 0.8 nM biotinylated rat 351
Protocol: as §3, §4

[16] = biological target: T2, human Notch1 NRR_Avi_His recombinant …; test: SPR (Biacore T100), ratio of KD to that of rat 351

T1 sequence (Q01705 19-2531): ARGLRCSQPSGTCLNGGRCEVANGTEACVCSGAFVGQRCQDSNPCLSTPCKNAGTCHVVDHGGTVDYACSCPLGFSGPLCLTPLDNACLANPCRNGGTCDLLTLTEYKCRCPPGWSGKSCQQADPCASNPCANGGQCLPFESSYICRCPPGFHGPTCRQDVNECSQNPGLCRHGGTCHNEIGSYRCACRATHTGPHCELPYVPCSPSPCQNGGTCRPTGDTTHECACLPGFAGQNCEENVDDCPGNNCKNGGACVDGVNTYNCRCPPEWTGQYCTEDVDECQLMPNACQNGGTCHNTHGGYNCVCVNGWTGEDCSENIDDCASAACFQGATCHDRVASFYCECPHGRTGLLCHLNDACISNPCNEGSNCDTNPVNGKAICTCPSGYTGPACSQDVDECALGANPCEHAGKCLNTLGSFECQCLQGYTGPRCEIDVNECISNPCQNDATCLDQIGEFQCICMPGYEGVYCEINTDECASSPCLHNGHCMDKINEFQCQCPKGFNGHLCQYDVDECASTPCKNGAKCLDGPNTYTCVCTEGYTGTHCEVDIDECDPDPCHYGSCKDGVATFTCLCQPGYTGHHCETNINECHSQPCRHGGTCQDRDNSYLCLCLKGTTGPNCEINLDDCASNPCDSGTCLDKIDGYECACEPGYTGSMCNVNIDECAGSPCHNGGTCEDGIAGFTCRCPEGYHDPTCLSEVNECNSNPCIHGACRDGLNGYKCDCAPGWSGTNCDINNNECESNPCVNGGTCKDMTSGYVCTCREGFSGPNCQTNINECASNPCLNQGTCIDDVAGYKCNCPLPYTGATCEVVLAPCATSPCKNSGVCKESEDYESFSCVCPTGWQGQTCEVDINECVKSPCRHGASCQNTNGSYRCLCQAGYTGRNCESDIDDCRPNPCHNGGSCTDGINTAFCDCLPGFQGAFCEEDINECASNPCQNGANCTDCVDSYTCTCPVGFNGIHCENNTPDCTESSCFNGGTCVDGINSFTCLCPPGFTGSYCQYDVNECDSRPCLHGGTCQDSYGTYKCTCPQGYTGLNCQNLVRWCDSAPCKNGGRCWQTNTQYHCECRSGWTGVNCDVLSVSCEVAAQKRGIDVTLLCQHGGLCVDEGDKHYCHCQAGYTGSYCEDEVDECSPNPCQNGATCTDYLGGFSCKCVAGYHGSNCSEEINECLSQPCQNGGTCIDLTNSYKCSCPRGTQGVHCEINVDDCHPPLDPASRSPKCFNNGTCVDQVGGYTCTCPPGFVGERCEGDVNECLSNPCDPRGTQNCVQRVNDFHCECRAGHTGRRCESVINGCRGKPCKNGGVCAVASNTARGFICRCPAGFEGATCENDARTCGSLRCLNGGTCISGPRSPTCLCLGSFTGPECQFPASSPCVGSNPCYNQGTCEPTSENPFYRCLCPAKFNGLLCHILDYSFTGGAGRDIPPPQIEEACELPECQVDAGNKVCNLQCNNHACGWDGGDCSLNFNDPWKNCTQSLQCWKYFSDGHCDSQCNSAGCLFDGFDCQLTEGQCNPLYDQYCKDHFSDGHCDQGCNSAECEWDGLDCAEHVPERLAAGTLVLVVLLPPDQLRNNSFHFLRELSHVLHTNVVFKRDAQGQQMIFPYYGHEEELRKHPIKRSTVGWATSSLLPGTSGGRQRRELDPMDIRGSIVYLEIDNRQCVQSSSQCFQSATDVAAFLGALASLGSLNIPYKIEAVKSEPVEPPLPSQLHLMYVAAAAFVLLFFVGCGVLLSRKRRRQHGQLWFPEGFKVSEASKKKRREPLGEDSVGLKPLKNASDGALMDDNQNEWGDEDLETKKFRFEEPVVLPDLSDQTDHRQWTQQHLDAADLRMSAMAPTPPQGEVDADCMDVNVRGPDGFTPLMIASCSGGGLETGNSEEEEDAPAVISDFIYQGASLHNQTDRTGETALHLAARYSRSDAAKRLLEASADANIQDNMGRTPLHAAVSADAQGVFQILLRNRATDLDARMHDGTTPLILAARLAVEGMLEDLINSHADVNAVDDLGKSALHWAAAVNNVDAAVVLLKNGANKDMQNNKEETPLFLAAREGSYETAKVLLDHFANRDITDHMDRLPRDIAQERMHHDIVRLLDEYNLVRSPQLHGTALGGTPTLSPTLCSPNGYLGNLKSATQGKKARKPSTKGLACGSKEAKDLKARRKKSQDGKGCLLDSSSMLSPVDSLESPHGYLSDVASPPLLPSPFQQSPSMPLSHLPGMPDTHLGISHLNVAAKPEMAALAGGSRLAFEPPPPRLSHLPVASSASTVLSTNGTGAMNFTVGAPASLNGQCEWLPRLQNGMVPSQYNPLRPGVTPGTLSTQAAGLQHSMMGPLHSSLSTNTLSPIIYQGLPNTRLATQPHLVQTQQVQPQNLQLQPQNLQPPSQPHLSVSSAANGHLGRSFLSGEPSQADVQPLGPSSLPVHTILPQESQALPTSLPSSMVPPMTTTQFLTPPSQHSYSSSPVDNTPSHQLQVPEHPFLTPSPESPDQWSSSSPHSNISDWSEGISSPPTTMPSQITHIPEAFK
T3 sequence (P46531 19-2555): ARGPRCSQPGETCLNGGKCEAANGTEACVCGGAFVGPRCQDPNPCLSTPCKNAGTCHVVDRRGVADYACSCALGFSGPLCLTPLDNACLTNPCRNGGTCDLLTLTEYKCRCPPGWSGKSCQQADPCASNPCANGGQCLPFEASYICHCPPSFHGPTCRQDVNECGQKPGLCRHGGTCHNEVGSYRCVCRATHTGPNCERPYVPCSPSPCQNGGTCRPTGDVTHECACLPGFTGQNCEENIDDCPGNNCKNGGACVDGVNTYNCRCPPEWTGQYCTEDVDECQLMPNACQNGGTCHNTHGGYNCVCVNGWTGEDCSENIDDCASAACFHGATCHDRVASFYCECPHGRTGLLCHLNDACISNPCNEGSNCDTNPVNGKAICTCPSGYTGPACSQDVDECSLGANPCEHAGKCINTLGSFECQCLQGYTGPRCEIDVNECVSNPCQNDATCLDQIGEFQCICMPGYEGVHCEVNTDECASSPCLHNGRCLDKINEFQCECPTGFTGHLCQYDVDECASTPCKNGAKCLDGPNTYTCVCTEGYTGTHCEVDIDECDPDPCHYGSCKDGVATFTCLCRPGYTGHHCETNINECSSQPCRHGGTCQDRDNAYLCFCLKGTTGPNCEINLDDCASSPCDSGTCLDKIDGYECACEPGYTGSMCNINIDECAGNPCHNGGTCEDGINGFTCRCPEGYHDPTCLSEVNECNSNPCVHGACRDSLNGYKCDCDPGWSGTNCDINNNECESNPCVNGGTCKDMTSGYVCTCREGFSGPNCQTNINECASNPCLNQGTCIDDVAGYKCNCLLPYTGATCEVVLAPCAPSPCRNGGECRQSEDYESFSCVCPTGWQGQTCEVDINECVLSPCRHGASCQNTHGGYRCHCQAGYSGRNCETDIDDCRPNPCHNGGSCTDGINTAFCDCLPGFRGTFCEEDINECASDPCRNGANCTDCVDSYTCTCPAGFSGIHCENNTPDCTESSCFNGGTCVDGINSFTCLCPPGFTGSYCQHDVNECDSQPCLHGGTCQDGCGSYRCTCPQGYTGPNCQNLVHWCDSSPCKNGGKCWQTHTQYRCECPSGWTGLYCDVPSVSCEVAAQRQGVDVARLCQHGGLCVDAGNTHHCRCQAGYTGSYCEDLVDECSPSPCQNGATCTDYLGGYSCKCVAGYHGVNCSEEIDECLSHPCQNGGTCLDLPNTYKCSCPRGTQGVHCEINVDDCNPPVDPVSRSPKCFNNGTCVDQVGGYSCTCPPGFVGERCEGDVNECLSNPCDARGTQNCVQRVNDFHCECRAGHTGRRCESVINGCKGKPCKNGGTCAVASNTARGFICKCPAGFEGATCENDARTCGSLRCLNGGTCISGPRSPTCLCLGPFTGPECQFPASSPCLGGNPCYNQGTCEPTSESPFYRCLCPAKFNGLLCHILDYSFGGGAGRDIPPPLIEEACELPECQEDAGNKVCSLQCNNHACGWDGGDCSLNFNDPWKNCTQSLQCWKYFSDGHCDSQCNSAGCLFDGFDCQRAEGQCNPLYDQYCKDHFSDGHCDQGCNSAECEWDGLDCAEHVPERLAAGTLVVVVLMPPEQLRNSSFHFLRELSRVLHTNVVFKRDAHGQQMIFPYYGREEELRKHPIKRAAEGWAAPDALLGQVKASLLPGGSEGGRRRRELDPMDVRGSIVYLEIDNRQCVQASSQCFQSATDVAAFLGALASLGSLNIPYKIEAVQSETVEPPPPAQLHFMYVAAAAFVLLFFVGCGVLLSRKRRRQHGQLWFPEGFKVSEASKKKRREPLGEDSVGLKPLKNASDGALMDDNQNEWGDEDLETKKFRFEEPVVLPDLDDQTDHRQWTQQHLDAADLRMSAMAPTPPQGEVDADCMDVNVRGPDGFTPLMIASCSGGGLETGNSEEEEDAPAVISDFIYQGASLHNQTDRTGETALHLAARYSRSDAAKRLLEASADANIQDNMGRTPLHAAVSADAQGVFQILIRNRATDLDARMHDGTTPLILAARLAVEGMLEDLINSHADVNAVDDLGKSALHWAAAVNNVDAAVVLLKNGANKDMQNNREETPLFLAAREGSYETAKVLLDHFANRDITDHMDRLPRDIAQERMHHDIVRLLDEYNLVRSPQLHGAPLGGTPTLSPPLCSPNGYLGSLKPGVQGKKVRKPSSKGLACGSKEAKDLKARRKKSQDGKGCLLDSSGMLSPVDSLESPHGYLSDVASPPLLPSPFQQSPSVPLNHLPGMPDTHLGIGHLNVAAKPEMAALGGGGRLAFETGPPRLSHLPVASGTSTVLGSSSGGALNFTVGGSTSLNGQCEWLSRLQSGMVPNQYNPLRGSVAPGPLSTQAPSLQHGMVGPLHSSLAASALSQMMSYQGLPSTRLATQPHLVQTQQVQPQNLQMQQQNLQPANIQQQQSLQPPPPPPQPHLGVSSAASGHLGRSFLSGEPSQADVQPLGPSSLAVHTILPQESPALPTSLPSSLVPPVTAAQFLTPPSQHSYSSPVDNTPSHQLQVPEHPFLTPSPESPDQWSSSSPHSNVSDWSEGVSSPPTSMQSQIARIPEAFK
T4 sequence (P46531 19-2555 L1593P limits assumed): as the sequence (P46531 19-2555) above, with L1575P counted along it

- EC50 [1]: 0.149 nM
- Kd [2]: 2.1 nM
- koff [2]: 0.000449 s⁻¹
- kon [2]: 214000 M⁻¹ s⁻¹
- EC50 [3]: 0.203 nM
- EC50 [4]: 3.2 nM
- EC50 [5]: 1.2 nM
- IC50, mouse Notch1 reporter gene co-culture assay (DLL4-HEK293) [7]: 0.46 nM
- IC50, human Notch1 reporter gene co-culture assay (DLL4-HEK293) [8]: 0.17 nM
- Fold difference from rat 438 [9]: 0.48 fold
B1: humanized 438 VH1.1/VL1.8 (antibody, human IgG1, kappa, V domains shown)
VH: EVQLVESGGGLVQPGGSLRLSCAASGFTFSSFAMAWVRQAPGKGLEWVASISYGGADTYYRDSVKGRFTISRDNAKNSLYLQMNSLRAEDTAVYYCAKDLPYYGYTPFVMDAWGQGTLVTVSS
VL: DIQMTQSPSSLSASVGDRVTITCRASQRINTDLHWYQQKPGKAPKVLIKFASQTISGVPSRFSGSGSGTDFTLTISSLQPEDFATYYCQQSNSWPYTFGQGTKLEIKR
notes: full chains (VH1.1)-hIgG1-3M and (VL1.8)-hkappa
- IC50, MTS viability assay of HPB-ALL leukemia cells [6]: 2.26 nM

- Normalized Notch1^ICD level, HPB-ALL cells, 0.001 µg/ml antibody [10]: 0.833 relative to untreated
- Normalized Notch1^ICD level, HPB-ALL cells, 0.01 µg/ml antibody [10]: 0.886 relative to untreated
- Normalized Notch1^ICD level, HPB-ALL cells, 0.1 µg/ml antibody [10]: 0.156 relative to untreated
- Normalized Notch1^ICD level, HPB-ALL cells, 1 µg/ml antibody [10]: 0.075 relative to untreated
- Normalized Notch1^ICD level, HPB-ALL cells, 10 µg/ml antibody [10]: 0.02 relative to untreated
- Normalized Notch1^ICD level, CCRF-CEM cells, 0.001 µg/ml antibody [11]: 0.982 relative to untreated
- Normalized Notch1^ICD level, CCRF-CEM cells, 0.01 µg/ml antibody [11]: 1.04 relative to untreated
- Normalized Notch1^ICD level, CCRF-CEM cells, 0.1 µg/ml antibody [11]: 0.413 relative to untreated
- Normalized Notch1^ICD level, CCRF-CEM cells, 1 µg/ml antibody [11]: 0.043 relative to untreated
- Normalized Notch1^ICD level, CCRF-CEM cells, 10 µg/ml antibody [11]: 0.034 relative to untreated
- Firefly/Renilla Luminescence, human Notch1 reporter cells + 5 mM EDTA, 0.01 µg/mL antibody [12]: 304 Firefly/Renilla ratio
- Firefly/Renilla Luminescence, human Notch1 reporter cells + 5 mM EDTA, 0.1 µg/mL antibody [12]: 202 Firefly/Renilla ratio
- Firefly/Renilla Luminescence, human Notch1 reporter cells + 5 mM EDTA, 1 µg/mL antibody [12]: 84.8 Firefly/Renilla ratio
- Firefly/Renilla Luminescence, human Notch1 reporter cells + 5 mM EDTA, 10 µg/mL antibody [12]: 62.1 Firefly/Renilla ratio
- Firefly/Renilla Luminescence, human Notch1 reporter cells + 5 mM EDTA, 30 µg/mL antibody [12]: 57 Firefly/Renilla ratio
- Neutralization activity (murine RGA), IC50 [13]: 0.42 nM
- Neutralization activity (Human RGA), IC50 [14]: 0.22 nM
B2: rat 351-mIgG1 (antibody, V domains shown)
VH: EVQLVESGGGLVQPGRSLKVSCLASGFTFSHYGMNWIRQAPGKGLDWVASISRSGSYIRYVDTVKGRFTVSRDIAKNTLYLQMTSLRSEDTALYYCAREGQFGDYFEYWGQGVMVTVSS
VL: DIMLTQSPATLSVTPGERISLSCRASQKISTNLHWYQQKPNESPRILIKYASQTISGIPSRFSGSGSGTDFTLHINTVEPEDFSVYYCQQTNSWPLTFGSGTKLEIK
- IC50, MTS viability assay of HPB-ALL leukemia cells [6]: 1.27 nM

- EC50 [1]: 0.07 nM
- EC50 [15]: 2.11 nM
- Kd [2]: 4.88 nM and 4.9 nM
- koff [2]: 0.00223 s⁻¹
- kon [2]: 458000 M⁻¹ s⁻¹
- Neutralization activity (murine RGA), IC50 [13]: 0.49 nM
- Neutralization activity (Human RGA), IC50 [14]: 0.17 nM
- EC50 [3]: 0.1 nM
- Fold difference from rat 351 [16]: 2.1 fold
B3: humanized 351 VH1.0/VL1.4 (antibody, human IgG1, V domains shown)
VH: EVQLVESGGGLVQPGGSLRLSCAASGFTFSHYGMNWVRQAPGKGLEWVASISRSGSYIRYVDTVKGRFTISRDNAKNSLYLQMNSLRAEDTAVYYCAREGQFGDYFEYWGQGTLVTVSS
VL: DIQMTQSPSSLSASVGDRVTITCRASQKISTNLHWYQQKPGKAPKLLIKYASQTISGVPSRFSGSGSGTDFTLTISSLQPEDFATYYCQQTNSWPLTFGGGTKVEIK
